In US20140366224A1 (CONSEJO SUPERIOR DE INVESTIGACIONES CIENTIFICAS, published 2014):

T1: IYO fused to split YFP (nYFP or cYFP) (Arabidopsis thaliana, UniProt Q8GYU3 1-1465)
T1 construct: BiFC construct expressed in Nicotiana benthamiana leaf epidermal cells; The position of the YFP half varied between combinations, so the order of the parts is not fixed; also called split YFP fused to IYO; not shown: nYFP or cYFP half of split YFP, fused at the N- or C-terminus (different combinations were used)
T1 sequence: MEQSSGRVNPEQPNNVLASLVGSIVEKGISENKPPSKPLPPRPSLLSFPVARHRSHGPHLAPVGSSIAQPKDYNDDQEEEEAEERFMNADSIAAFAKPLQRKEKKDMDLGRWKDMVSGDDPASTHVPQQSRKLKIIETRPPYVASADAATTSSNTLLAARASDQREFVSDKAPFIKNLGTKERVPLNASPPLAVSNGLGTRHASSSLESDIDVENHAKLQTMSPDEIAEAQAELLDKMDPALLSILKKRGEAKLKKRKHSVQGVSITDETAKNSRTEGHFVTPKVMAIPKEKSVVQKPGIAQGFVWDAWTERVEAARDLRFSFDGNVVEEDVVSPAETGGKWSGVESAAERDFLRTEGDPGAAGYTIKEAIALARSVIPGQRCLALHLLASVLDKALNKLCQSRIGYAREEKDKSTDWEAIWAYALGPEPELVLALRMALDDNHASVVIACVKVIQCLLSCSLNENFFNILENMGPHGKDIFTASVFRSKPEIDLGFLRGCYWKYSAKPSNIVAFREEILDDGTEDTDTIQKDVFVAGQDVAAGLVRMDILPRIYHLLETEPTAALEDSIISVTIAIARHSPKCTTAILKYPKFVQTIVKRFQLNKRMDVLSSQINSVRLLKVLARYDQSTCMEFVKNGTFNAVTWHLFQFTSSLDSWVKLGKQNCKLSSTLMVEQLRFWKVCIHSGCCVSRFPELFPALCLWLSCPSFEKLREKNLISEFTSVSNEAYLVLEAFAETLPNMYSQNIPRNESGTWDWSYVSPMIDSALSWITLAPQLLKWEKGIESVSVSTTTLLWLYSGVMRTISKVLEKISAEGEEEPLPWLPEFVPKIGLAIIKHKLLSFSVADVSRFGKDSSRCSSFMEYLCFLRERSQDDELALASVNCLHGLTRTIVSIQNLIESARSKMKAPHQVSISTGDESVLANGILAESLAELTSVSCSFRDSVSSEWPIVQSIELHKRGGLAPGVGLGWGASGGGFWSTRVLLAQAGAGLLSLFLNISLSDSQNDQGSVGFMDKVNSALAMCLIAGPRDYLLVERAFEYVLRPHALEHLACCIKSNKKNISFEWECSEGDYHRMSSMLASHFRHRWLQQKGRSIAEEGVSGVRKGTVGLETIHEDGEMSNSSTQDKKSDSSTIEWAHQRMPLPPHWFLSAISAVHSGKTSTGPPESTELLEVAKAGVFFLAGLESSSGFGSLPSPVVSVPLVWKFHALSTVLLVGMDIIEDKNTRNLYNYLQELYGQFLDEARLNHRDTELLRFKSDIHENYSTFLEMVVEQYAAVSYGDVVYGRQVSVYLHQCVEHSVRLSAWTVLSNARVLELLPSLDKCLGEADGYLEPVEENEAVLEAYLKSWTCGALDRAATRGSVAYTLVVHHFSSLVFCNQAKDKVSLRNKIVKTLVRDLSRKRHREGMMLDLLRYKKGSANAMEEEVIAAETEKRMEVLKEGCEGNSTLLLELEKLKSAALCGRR


Tests used:
[1] = molecular target: T1, IYO fused to split YFP (nYFP or cYFP); assay: BiFC, split YFP in Nicotiana benthamiana leaves
Text: Although the bulk of AtRTR1 is present in the cytosol, we found high levels of nuclear fluorescence reconstitution when split YFP fused to IYO and AtRTR1 was expressed in Nicotiana benthamiana leaves (FIGS. 12-14). This confirms that IYO and AtRTR1 interact physically, and that they do so in the nucleus. […] To test this, Applicants analyzed the subcellular distribution of AtRTR1 in the presence or absence of co-expressed IYO. These experiments confirmed that co-expressed IYO increases the accumulation of AtRTR1 in the nucleus.
(§1) Applicants tested for the in vivo interaction between IYO and AtRTR1 through a bimolecular fluorescence complementation assay in epidermal cells from Nicotiana benthamiana leaves.

[2] = molecular target: T1, IYO fused to split YFP (nYFP or cYFP); assay: BiFC (split YFP) in Nicotiana benthamiana leaf cells
Text: as §1

[3] = molecular target: T1, IYO fused to split YFP (nYFP or cYFP); assay: BiFC context, truncated AtRTR1
Text: as §1

| binding result [2] | Binder | other results |
| --- | --- | --- |
| – | AtRTR1 (At5g26760) full-length, fused to split YFP (nYFP or cYFP) (other, Wild-type full-length AtRTR1 in BiFC in Nicotiana benthamiana leaves; The position of the YFP half varied; also called split YFP fused to AtRTR1; not shown: nYFP or cYFP half of split YFP, fused at the N- or C-terminus (different combinations were used)) MAKDNEAIAINDAVHKLQLYMLENTTDQNQLFAARKLMSRSDYEDVVTERAIAKLCGYTLCQRFLPSDVSRRGKYRISLKDHKVYDLQETSKFCSAGCLIDSKTFSGSLQEARTLEFDSVKLNEILDLFGDSLEVKGSLDVNKDLDLSKLMIKENFGVRGEELSLEKWMGPSNAVEGYVPFDRSKSSNDSKATTQSNQEKHEMDFTSTVIMPDVNSVSKLPPQTKQASTVVESVDGKGKTVLKEQTVVPPTKKVSRFRREKEKEKKTFGVDGMGCAQEKTTVLPRKILSFCNEIEKDFKNFGFDEMGLASSAMMSDGYGVEYSVSKQPQCSMEDSLSCKLKGDLQTLDGKNTLSGSSSGSNTKGSKTKPEKSRKKIISVEYHANSYEDGEEILAAESYERHKAQDVCSSSEIVTKSCLKISGSKKLSRSVTWADQNDGRGDLCEVRNNDNAAGPSLSSNDIEDVNSLSRLALAEALATALSQAAEAVSSGNSDASDATAKAGIILLPSTHQLDEEVTEEHSEEEMTEEEPTLLKWPNKPGIPDSDLFDRDQSWFDGPPEGFNLTLSNFAVMWDSLFGWVSSSSLAYIYGKEESAHEEFLLVNGKEYPRRIIMVDGLSSEIKQTIAGCLARALPRVVTHLRLPIAISELEKGLGSLLETMSLTGAVPSFRVKEWLVIVLLFLDALSVSRIPRIAPYISNRDKILEGSGIGNEEYETMKDILLPLGRVPQFATRSGA | binding result [1]: binds |
| no binding | full-length AtRTR1 C56A/C61A (other, not shown: large carriers, The putative zinc-coordinating cysteines are substituted by alanine) MAKDNEAIAINDAVHKLQLYMLENTTDQNQLFAARKLMSRSDYEDVVTERAIAKLAGYTLAQRFLPSDVSRRGKYRISLKDHKVYDLQETSKFCSAGCLIDSKTFSGSLQEARTLEFDSVKLNEILDLFGDSLEVKGSLDVNKDLDLSKLMIKENFGVRGEELSLEKWMGPSNAVEGYVPFDRSKSSNDSKATTQSNQEKHEMDFTSTVIMPDVNSVSKLPPQTKQASTVVESVDGKGKTVLKEQTVVPPTKKVSRFRREKEKEKKTFGVDGMGCAQEKTTVLPRKILSFCNEIEKDFKNFGFDEMGLASSAMMSDGYGVEYSVSKQPQCSMEDSLSCKLKGDLQTLDGKNTLSGSSSGSNTKGSKTKPEKSRKKIISVEYHANSYEDGEEILAAESYERHKAQDVCSSSEIVTKSCLKISGSKKLSRSVTWADQNDGRGDLCEVRNNDNAAGPSLSSNDIEDVNSLSRLALAEALATALSQAAEAVSSGNSDASDATAKAGIILLPSTHQLDEEVTEEHSEEEMTEEEPTLLKWPNKPGIPDSDLFDRDQSWFDGPPEGFNLTLSNFAVMWDSLFGWVSSSSLAYIYGKEESAHEEFLLVNGKEYPRRIIMVDGLSSEIKQTIAGCLARALPRVVTHLRLPIAISELEKGLGSLLETMSLTGAVPSFRVKEWLVIVLLFLDALSVSRIPRIAPYISNRDKILEGSGIGNEEYETMKDILLPLGRVPQFATRSGA | – |
| no binding | full-length AtRTR1 C94A/C98A (other, not shown: large carriers, The putative zinc-coordinating cysteines are substituted by alanine) MAKDNEAIAINDAVHKLQLYMLENTTDQNQLFAARKLMSRSDYEDVVTERAIAKLCGYTLCQRFLPSDVSRRGKYRISLKDHKVYDLQETSKFASAGALIDSKTFSGSLQEARTLEFDSVKLNEILDLFGDSLEVKGSLDVNKDLDLSKLMIKENFGVRGEELSLEKWMGPSNAVEGYVPFDRSKSSNDSKATTQSNQEKHEMDFTSTVIMPDVNSVSKLPPQTKQASTVVESVDGKGKTVLKEQTVVPPTKKVSRFRREKEKEKKTFGVDGMGCAQEKTTVLPRKILSFCNEIEKDFKNFGFDEMGLASSAMMSDGYGVEYSVSKQPQCSMEDSLSCKLKGDLQTLDGKNTLSGSSSGSNTKGSKTKPEKSRKKIISVEYHANSYEDGEEILAAESYERHKAQDVCSSSEIVTKSCLKISGSKKLSRSVTWADQNDGRGDLCEVRNNDNAAGPSLSSNDIEDVNSLSRLALAEALATALSQAAEAVSSGNSDASDATAKAGIILLPSTHQLDEEVTEEHSEEEMTEEEPTLLKWPNKPGIPDSDLFDRDQSWFDGPPEGFNLTLSNFAVMWDSLFGWVSSSSLAYIYGKEESAHEEFLLVNGKEYPRRIIMVDGLSSEIKQTIAGCLARALPRVVTHLRLPIAISELEKGLGSLLETMSLTGAVPSFRVKEWLVIVLLFLDALSVSRIPRIAPYISNRDKILEGSGIGNEEYETMKDILLPLGRVPQFATRSGA | – |
| – | C-terminal half of AtRTR1 (aa 305-735) (other, not shown: large carriers, also called truncated C-terminal half of AtRTR1; C-terminal half of RTR1) EMGLASSAMMSDGYGVEYSVSKQPQCSMEDSLSCKLKGDLQTLDGKNTLSGSSSGSNTKGSKTKPEKSRKKIISVEYHANSYEDGEEILAAESYERHKAQDVCSSSEIVTKSCLKISGSKKLSRSVTWADQNDGRGDLCEVRNNDNAAGPSLSSNDIEDVNSLSRLALAEALATALSQAAEAVSSGNSDASDATAKAGIILLPSTHQLDEEVTEEHSEEEMTEEEPTLLKWPNKPGIPDSDLFDRDQSWFDGPPEGFNLTLSNFAVMWDSLFGWVSSSSLAYIYGKEESAHEEFLLVNGKEYPRRIIMVDGLSSEIKQTIAGCLARALPRVVTHLRLPIAISELEKGLGSLLETMSLTGAVPSFRVKEWLVIVLLFLDALSVSRIPRIAPYISNRDKILEGSGIGNEEYETMKDILLPLGRVPQFATRSGA | binding result [3]: binds |
